These results are taken from article PMC6351176 (Molecular microbiology, 2018).

Residue numbers refer to the chain shown, from its start. In names and notes the source's numbering stands.

Sequences and labels used below:
B1: purified DnaD winged helix domain, wild type (B. subtilis, amino acids 1-128) (domain or fragment, UniProt P39787 1-128, looked up)
chain: MKKQQFIDMQEQGTSTIPNLLLTHYKQLGLNETELILLLKIKMHLEKGSYFPTPNQLQEGMSISVEECTNRLRMFIQKGFLFIEECEDQNGIKFEKYSLQPLWGKLYEYIQLAQNQTQERKAEGEQKS
B2: purified DnaD winged helix domain I83A (B. subtilis, amino acids 1-128) (domain or fragment, UniProt P39787 1-128, looked up)
chain: B1 chain with I83A
B3: purified DnaA domain I, wild type (B. subtilis, amino acids 1-82) (domain or fragment, UniProt P05648 1-82, looked up)
chain: MENILDLWNQALAQIEKKLSKPSFETWMKSTKAHSLQGDTLTITAPNEFARDWLESRYLHLIADTIYELTGEELSIKFVIPQ
B4: purified DnaD winged helix domain F51A (B. subtilis, amino acids 1-128) (domain or fragment, UniProt P39787 1-128, looked up)
chain: B1 chain with F51A

The data set “cross-linking” deals with the molecule itself. The data set can be described thus: cross-linking.
Data set [1] has as its target B1. The data set can be described thus: cross-linking.

For B1, the binding result in “cross-linking” is reported as “binds”.
What is called stoichiometry N is the number of molecules, sites or subunits per partner or assembly. As to B2, in the data set “cross-linking”, the “stoichiometry N” value came to 4.
For B3, in data set [1], the binding result is given as “binds”.
In the case of B4, the “stoichiometry N” value in “cross-linking” came to 4.
